Test results reported in article PMC4182028.

Legend:
[1] = target: Chaetomium thermophilum p44 (residues 1-285) (Chaetomium thermophilum)
[2] = system: ctXPD F192A (Chaetomium thermophilum); test: BLI; conditions: 3'-biotin; BLI (Octet RED): 20 mM Tris-HCl pH 8.0, 150 mM NaCl, 10 mM MgCl2, 1 mM DTT, 1 mg/ml BSA; 0.5-5 uM ctXPD; temperature not stated
[3] = system: ctXPD K48R (Chaetomium thermophilum); test: BLI; conditions: 3'-biotin; BLI (Octet RED): 20 mM Tris-HCl pH 8.0, 150 mM NaCl, 10 mM MgCl2, 1 mM DTT, 1 mg/ml BSA; 0.5-5 uM ctXPD; temperature not stated
[4] = system: ctXPD R195A (Chaetomium thermophilum); test: BLI; conditions: 3'-biotin; BLI (Octet RED): 20 mM Tris-HCl pH 8.0, 150 mM NaCl, 10 mM MgCl2, 1 mM DTT, 1 mg/ml BSA; 0.5-5 uM ctXPD; temperature not stated
[5] = system: ctXPD R195E (Chaetomium thermophilum); test: BLI; conditions: 3'-biotin; BLI (Octet RED): 20 mM Tris-HCl pH 8.0, 150 mM NaCl, 10 mM MgCl2, 1 mM DTT, 1 mg/ml BSA; 0.5-5 uM ctXPD; temperature not stated
[6] = system: ctXPD Y156A (Chaetomium thermophilum); test: BLI; conditions: 3'-biotin; BLI (Octet RED): 20 mM Tris-HCl pH 8.0, 150 mM NaCl, 10 mM MgCl2, 1 mM DTT, 1 mg/ml BSA; 0.5-5 uM ctXPD; temperature not stated
[7] = system: ctXPD K719W (Chaetomium thermophilum); test: BLI; conditions: 3'-biotin; BLI (Octet RED): 20 mM Tris-HCl pH 8.0, 150 mM NaCl, 10 mM MgCl2, 1 mM DTT, 1 mg/ml BSA; 0.5-5 uM ctXPD; temperature not stated
[8] = system: ctXPD wild type (Chaetomium thermophilum); test: BLI; conditions: 3'-biotin; BLI (Octet RED): 20 mM Tris-HCl pH 8.0, 150 mM NaCl, 10 mM MgCl2, 1 mM DTT, 1 mg/ml BSA; 0.5-5 uM ctXPD; temperature not stated
[9] = system: ctXPD wild type;ctp44 (1-285) (Chaetomium thermophilum;Chaetomium thermophilum); test: BLI; conditions: 3'-biotin; BLI (Octet RED): 20 mM Tris-HCl pH 8.0, 150 mM NaCl, 10 mM MgCl2, 1 mM DTT, 1 mg/ml BSA; 0.5-5 uM ctXPD; temperature not stated

Chaetomium thermophilum XPD K719W (enzyme)
fluorescence-based helicase activity of ctXPD K719W with ctp44 (1-285) added (Rel. Fluorescence Change·s^−1) [1]: 4.8 | ssDNA-dependent ATPase activity of ctXPD K719W with ctp44 (1-285) added (mol ATP·s^−1 ·mol^−1 XPD) [1]: 0.12

Chaetomium thermophilum XPD wild type (enzyme)
ssDNA-dependent ATPase activity of ctXPD with ctp44 (1-285) added (0.12 without ctp44) (mol ATP·s^−1 ·mol^−1 XPD) [1]: 0.7

GACTACGTACTGTTACGGCTCCATCTCTACCGCAATCAGGCCAGATCTGC [50-nt ssDNA (BLI)]
Kd [2]: 668 nM | Kd [3]: 159 nM | Kd [4]: 1040 nM | Kd [5]: 916 nM | Kd [6]: 561 nM | Kd [7]: 192 nM | Kd [8]: 118 nM | Kd [9]: 93 nM
